Reference: ChEMBL document CHEMBL1649237, “IND-6, a highly divergent IND-type metallo-beta-lactamase from Chryseobacterium indologenes strain 597 isolated in Burkina Faso” (2009)

Columns and labels:
[1] = substrate: CO/N=C(\C(=O)N[C@@H]1C(=O)N2C(C(=O)[O-])=C(C[N+]3(C)CCCC3)CS[C@H]12)c1csc(N)n1; test: (§1) Ratio of Kcat to Km for Chryseobacterium indologenes 597 metallo-beta-lactamase IND-2 expressed in Escherichia coli DH5alpha by Michaelis-Menten equation
[2] = substrate: C[C@@H](O)[C@H]1C(=O)N2C(C(=O)O)=C(SCCNC=N)C[C@H]12; test: as §1
[3] = substrate: CC(=O)OCC1=C(C(=O)O)N2C(=O)[C@@H](NC(=O)Cc3cccs3)[C@H]2SC1; test: as §1
[4] = substrate: CO/N=C(\C(=O)N[C@@H]1C(=O)N2C(C(=O)O)=C(COC(C)=O)CS[C@H]12)c1csc(N)n1; test: as §1
[5] = substrate: CC(C)(O/N=C(\C(=O)N[C@@H]1C(=O)N2C(C(=O)[O-])=C(C[n+]3ccccc3)CS[C@H]12)c1csc(N)n1)C(=O)O; test: as §1
[6] = substrate: CC1(C)S[C@@H]2[C@H](NC(=O)Cc3ccccc3)C(=O)N2[C@H]1C(=O)O; test: as §1
[7] = substrate: C[C@@H](O)[C@H]1C(=O)N2C(C(=O)O)=C(S[C@@H]3CN[C@H](C(=O)N(C)C)C3)[C@H](C)[C@H]12; test: as §1
[8] = substrate: CO/N=C(\C(=O)N[C@@H]1C(=O)N2C(C(=O)O)=C(COC(N)=O)CS[C@H]12)c1ccco1; test: (§2) Ratio of Kcat to Km for Chryseobacterium meningosepticum CCUG 4310 beta-lactamase BlaB1 expressed in Escherichia coli DH5alpha by Michaelis-Menten equation; settings: Elizabethkingia meningoseptica
[9] = substrate: CO/N=C(\C(=O)N[C@@H]1C(=O)N2C(C(=O)[O-])=C(C[N+]3(C)CCCC3)CS[C@H]12)c1csc(N)n1; test: as §2; settings: Elizabethkingia meningoseptica
[10] = substrate: CC1(C)S[C@@H]2[C@H](NC(=O)C(C(=O)O)c3ccccc3)C(=O)N2[C@H]1C(=O)O; test: as §2; settings: Elizabethkingia meningoseptica
[11] = substrate: C[C@@H](O)[C@H]1C(=O)N2C(C(=O)O)=C(SCCNC=N)C[C@H]12; test: as §2; settings: Elizabethkingia meningoseptica
[12] = substrate: CC(=O)OCC1=C(C(=O)O)N2C(=O)[C@@H](NC(=O)Cc3cccs3)[C@H]2SC1; test: as §2; settings: Elizabethkingia meningoseptica
[13] = substrate: CO/N=C(\C(=O)N[C@@H]1C(=O)N2C(C(=O)O)=C(COC(C)=O)CS[C@H]12)c1csc(N)n1; test: as §2; settings: Elizabethkingia meningoseptica
[14] = substrate: CC(C)(O/N=C(\C(=O)N[C@@H]1C(=O)N2C(C(=O)[O-])=C(C[n+]3ccccc3)CS[C@H]12)c1csc(N)n1)C(=O)O; test: as §2; settings: Elizabethkingia meningoseptica
[15] = substrate: O=C(Cc1cccs1)N[C@@H]1C(=O)N2C(C(=O)[O-])=C(C[n+]3ccccc3)CS[C@H]12; test: as §2; settings: Elizabethkingia meningoseptica
[16] = substrate: CC1(C)S[C@@H]2[C@H](NC(=O)Cc3ccccc3)C(=O)N2[C@H]1C(=O)O; test: as §2; settings: Elizabethkingia meningoseptica
[17] = substrate: C[C@@H](O)[C@H]1C(=O)N2C(C(=O)O)=C(S[C@@H]3CN[C@H](C(=O)N(C)C)C3)[C@H](C)[C@H]12; test: as §2; settings: Elizabethkingia meningoseptica
[18] = substrate: O=C(Cc1cccs1)N[C@@H]1C(=O)N2C(C(=O)O)=C(/C=C/c3ccc([N+](=O)[O-])cc3[N+](=O)[O-])CS[C@H]12; test: as §2; settings: Elizabethkingia meningoseptica

B1: Metallo-beta-lactamase IND-2 (Chryseobacterium indologenes), Q9F923 (protein)
chain: MKKSIQLLMMSMFLSPLINAQVKDFVIEPPVKPNLYLYKSFGVFGGKEYSANAVYLTTKKGVVLFDVPWQKEQYQTLMDTIQKRHHLPVIAVFATHSHDDRAGDLSFYNQKGIKTYATAKTNELLKKDGKATSTEIIKTGKPYKIGGEEFMVDFLGEGHTVDNVVVWFPKYKVLDGGCLVKSRTATDLGYTGEANVKQWPETMRKLKTKYAQATLVIPGHDEWKGGGHVQHTLDLLDKN
For B1, the kcat/Km [1] was 4.5 ×10² /M/s, the kcat/Km [2] was 5.9 ×10⁵ /M/s and the kcat/Km [3] was 1.2 ×10⁶ /M/s. For the same protein, the kcat/Km [4] was 9 ×10⁵ /M/s, the kcat/Km [5] was 4.5 ×10³ /M/s and the kcat/Km [6] was 4.6 ×10⁶ /M/s. For the same protein, the kcat/Km [7] was 1.8 ×10⁵ /M/s.

B2: Metallo-beta-lactamase type 2 (Flavobacterium meningosepticum), O08498 (protein)
chain: MLKKIKISLILALGLTSLQAFGQENPDVKIEKLKDNLYVYTTYNTFNGTKYAANAVYLVTDKGVVVIDCPWGEDKFKSFTDEIYKKHGKKVIMNIATHSHDDRAGGLEYFGKIGAKTYSTKMTDSILAKENKPRAQYTFDNNKSFKVGKSEFQVYYPGKGHTADNVVVWFPKEKVLVGGCIIKSADSKDLGYIGEAYVNDWTQSVHNIQQKFSGAQYVVAGHDDWKDQRSIQHTLDLINEYQQKQKASN
B2 gave a kcat/Km [8] of 1 ×10⁶ /M/s, a kcat/Km [9] of 2 ×10² /M/s and a kcat/Km [10] of 6.1 ×10⁶ /M/s. The kcat/Km [11] was 2 ×10⁶ /M/s, the kcat/Km [12] was 1.6 ×10⁶ /M/s and the kcat/Km [13] was 7.9 ×10⁵ /M/s. The kcat/Km [14] was 6.6 ×10³ /M/s, the kcat/Km [15] was 1.4 ×10⁵ /M/s and the kcat/Km [16] was 2.7 ×10⁷ /M/s. It also gave a kcat/Km [17] of 7.6 ×10⁵ /M/s and a kcat/Km [18] of 3.9 ×10⁶ /M/s.
